Results from patent US11116816B2, “Therapeutic vitamin d conjugates” (Extend Biosciences, Inc., priority 2014, dated 2021).
Read-outs that look alike come from different tables or passages of the source. Primed or numbered codes have the meaning given here. No end group written: not given here.

B1: FGF21 in its natural state: Fibroblast Growth Factor 21, protein that circulates in serum, natural state (protein, UniProt Q9NSA1 29-209, looked up)
Fibroblast growth factor 21: HPIPDSSPLLQFGGQVRQRYLYTDDAQQTEAHLEIREDGTVGGAADQSPESLLQLKALKPGVIQILGVKTSRFLCQRPDGALYGSLHFDPEACSFRELLLEDGYNVYQSEAHGLPLHLPGNKSPHRDPAPRGPARFLPLPGLPPALPEPPGILAPQPPDVGSSDPLSMVGPSQGRSPSYAS
B2: FGF21: Modified FGF21 expressed in E. coli, I3C substitution and His6 tag, SEQ ID NO:22, not conjugated (protein)
chain: MHHHHHHHPCPDSSPLLQFGGQVRQRYLYTDDAQQTEAHLEIREDGTVGGAADQSPESLLQLKALKPGVIQILGVKTSRFLCQRPDGALYGSLHFDPEACSFRELLLEDGYNVYQSEAHGLPLHLPGNKSPHRDPAPRGPARFLPLPGLPPALPEPPGILAPQPPDVGSSDPLSMVGPSQGRSPSYAS
modifications: His6 tag
B3: VitD-(25)-PEG2K-FGF21: Modified FGF21 (SEQ ID NO:22) conjugated via free cysteine to VitD-(25)-PEG2K-maleimide (conjugate)
chain: B2 chain
modifications: VitD-PEG2K-maleimide conjugated at free cysteine
B4: VitD-(3)-PEG2K-FGF21: Modified FGF21 (SEQ ID NO:22) conjugated via free cysteine to VitD-(3)-PEG2K-maleimide (conjugate)
chain: B2 chain
modifications: VitD-PEG2K-maleimide conjugated at free cysteine

What was measured:
[1] = Bertrand et al. 2015; cited from earlier work
[2] = Pharmacokinetics of apelin and apelin conjugates, intravenous; type: in vivo, Sprague-Dawley rats; details: for pharmacokinetic properties compared to unmodified apelin: ELISA (FIG. 5); for bioavailability improvement: AUC versus native apelin-13, 0.1 mg/kg intravenous
Procedure: FIG. 5: Pharmacokinetics of apelin and apelin conjugates. Apelin alone or conjugated to the Vitamin D-(25)-PEG2k-maleimide carrier, or the Vitamin D-(3)-PEG2k-aldehyde carrier were injected intravenously into Sprague-Dawley rats at 0.1 mg/kg. Plasma samples were analyzed for apelin concentration by ELISA in duplicate and the average value from three animals were plotted on the semi-log graph.
Plasma samples were taken at 5 min, and 0.5, 1, 2, 4, 8 and 24 hr and analyzed for the presence of apelin by quantitative ELISA (Phoenix Pharmaceuticals, Burlingame, Calif., Cat. No. EK-057-23). […] Unmodified apelin decayed to near-background levels within 5 minutes of injection.
The decay rates of the carrier-conjugates are complex and probably represent a combination of slower renal clearance and protection from protease degradation. A pharmacokinetic analysis of the data was then performed using WinNonLin (PharSight) and GraphPad (Prism).

[3] = in vivo; cited from earlier work
[4] = natural state; WO03/011213, Kharitonenkov et al. 2005; cited from earlier work
[5] = Pharmacokinetics of FGF21 conjugates, subcutaneous; type: in vivo, Sprague Dawley rats; details: 0.1 mg/kg sc; for Cmax: plasma, human FGF21 ELISA
Procedure: The pharmacokinetics of FGF21 conjugates in Sprague Dawley rats were determined. Unmodified FGF21, VitD-(25)-PEG2K-FGF21 and VitD-(3)-PEG2K-FGF21 were compared. […] The samples were analyzed using commercial ELISA kits for human FGF21 (Millipore Cat. No. EZHFGF21-19K). […] Improvements in the mean residence time (MRT) and terminal rate constant (Lz) values were also observed.

[6] = molecular target: T1, human FGF21 receptor (FGFR1), recruitment of co-receptor β-Klotho (Homo sapiens, UniProt P11362+Q86Z14); test: PathHunter U2OS FGFR1-β-Klotho Functional Assay; type: cell-based; details: PathHunter U2OS cells expressing FGFR1, β-Klotho recruitment, chemiluminescence
T1 construct: host or cells: U2OS (PathHunter)
Text: In some embodiments, the activity of the FG21, when conjugated to a carrier, was substantially the same as unmodified protein. […] PathHunter® cells stably express human FGF21 receptor (FGFR1). They were monitored for recruitment of the co-receptor, β-Klotho, following exposure to the test compounds using the PathHunter® Detection reagent cocktail on a PerkinElmer Envision instrument with chemiluminescent signal detection. […] Thus, the FGF21 conjugates retained about the same receptor activity as the unmodified FGF21 protein or better.

[7] = 0.1 mg/kg intravenous, plasma, ELISA

T1 sequence (P11362 22-822): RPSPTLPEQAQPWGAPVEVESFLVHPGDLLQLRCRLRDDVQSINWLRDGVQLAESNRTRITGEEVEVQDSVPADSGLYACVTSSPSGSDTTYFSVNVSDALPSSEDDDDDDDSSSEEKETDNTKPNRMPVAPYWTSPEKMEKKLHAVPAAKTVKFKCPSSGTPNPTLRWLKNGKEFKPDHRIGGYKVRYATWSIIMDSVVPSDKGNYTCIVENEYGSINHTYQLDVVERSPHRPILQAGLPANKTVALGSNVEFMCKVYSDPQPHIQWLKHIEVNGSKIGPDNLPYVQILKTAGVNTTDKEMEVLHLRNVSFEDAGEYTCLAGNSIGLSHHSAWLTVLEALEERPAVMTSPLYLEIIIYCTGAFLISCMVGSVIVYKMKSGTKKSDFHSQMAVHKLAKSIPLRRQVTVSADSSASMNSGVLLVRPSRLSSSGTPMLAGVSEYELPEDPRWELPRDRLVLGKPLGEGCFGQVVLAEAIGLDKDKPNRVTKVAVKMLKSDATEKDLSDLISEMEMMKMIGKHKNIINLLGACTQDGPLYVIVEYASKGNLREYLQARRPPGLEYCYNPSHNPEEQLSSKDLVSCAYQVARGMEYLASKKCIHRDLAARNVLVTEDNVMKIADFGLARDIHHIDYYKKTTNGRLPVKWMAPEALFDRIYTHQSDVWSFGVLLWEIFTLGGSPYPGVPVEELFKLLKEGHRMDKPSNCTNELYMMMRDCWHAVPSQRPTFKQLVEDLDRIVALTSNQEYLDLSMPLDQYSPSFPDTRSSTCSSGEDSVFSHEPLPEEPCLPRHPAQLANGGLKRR
T1 sequence (Q86Z14 52-1044 limits assumed): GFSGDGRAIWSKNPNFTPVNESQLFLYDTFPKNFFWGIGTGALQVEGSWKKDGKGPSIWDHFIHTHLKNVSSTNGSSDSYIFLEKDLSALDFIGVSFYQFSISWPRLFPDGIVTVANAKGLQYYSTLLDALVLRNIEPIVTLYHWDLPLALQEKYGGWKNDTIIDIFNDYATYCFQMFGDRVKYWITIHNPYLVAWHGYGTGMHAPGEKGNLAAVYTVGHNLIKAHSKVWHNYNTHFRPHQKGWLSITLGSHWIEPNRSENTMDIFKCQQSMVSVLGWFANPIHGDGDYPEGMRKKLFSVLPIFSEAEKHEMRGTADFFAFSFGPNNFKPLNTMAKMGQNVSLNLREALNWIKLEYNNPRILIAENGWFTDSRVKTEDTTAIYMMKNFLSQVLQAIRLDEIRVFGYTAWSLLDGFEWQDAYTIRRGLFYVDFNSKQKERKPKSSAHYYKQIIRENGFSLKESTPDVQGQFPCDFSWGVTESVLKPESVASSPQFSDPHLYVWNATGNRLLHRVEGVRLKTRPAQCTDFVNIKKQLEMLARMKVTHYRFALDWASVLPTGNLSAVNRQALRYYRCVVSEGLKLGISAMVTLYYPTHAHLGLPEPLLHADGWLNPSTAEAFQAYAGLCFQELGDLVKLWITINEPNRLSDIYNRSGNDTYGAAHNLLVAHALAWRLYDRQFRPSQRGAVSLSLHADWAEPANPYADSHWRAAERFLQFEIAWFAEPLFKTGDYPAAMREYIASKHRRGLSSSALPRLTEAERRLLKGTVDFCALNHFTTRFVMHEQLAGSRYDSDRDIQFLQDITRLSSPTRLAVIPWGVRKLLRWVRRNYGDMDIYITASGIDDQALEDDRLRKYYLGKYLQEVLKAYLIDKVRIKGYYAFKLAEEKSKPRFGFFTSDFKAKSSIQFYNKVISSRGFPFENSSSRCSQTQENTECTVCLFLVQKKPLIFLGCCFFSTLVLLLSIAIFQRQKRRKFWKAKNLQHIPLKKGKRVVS

EC50 [6] [µg/mL] | Molecule | AUCtot [5] | Lz (terminal rate constant) [5] | MRT [5] [h] | Tmax [5] [h] | t½ [5] [h] | Cmax [5] [ng/mL] | further results
– | CSCC[C@H](NC(=O)[C@@H]1CCCN1C(=O)CNC(=O)[C@H](CCCCN)NC(=O)[C@H](Cc1cnc[nH]1)NC(=O)[C@H](CO)NC(=O)[C@H](CC(C)C)NC(=O)[C@H](CCCNC(=N)N)NC(=O)[C@@H]1CCCN1C(=O)[C@H](CCCNC(=N)N)NC(=O)[C@@H](N)CCC(N)=O)C(=O)N1CCC[C@H]1C(=O)N[C@@H](Cc1ccccc1)C(=O)O [apelin-13, reference compound] | – | – | – | – | – | – | in vivo half-life [1]: ≤ 0.333 h; time to decay to near-background levels after injection [2, 7]: ≤ 5 min; AUC ([2]; Sprague-Dawley, rat, 0.1 mg/kg intravenous, plasma, ELISA, read-out: AUC): 0.4 ng·h/mL
– | VitD-(3)-PEG2K-apelin: Apelin-13 conjugated at N-terminal amine to Vitamin D-(3)-PEG2K-aldehyde carrier ({VitD‑(3)-PEG2K}-QRPRLSHKGPMPF) | – | – | – | – | – | – | AUC [2, 7]: 328 ng·h/mL; pharmacokinetic properties compared to unmodified apelin ([2]; 0.1 mg/kg intravenous, plasma): significantly improved pharmacokinetic properties; bioavailability improvement [2]: 820 fold
– | VitD-(25)-PEG2K-C-apelin: C-apelin (SEQ ID NO:16, N-terminal cysteine) conjugated to VitD-(25)-PEG2K-maleimide carrier (CQRPRLSHKGPMPF; VitD-(25)-PEG2K-maleimide carrier conjugate) | – | – | – | – | – | – | AUC [2, 7]: 85 ng·h/mL; pharmacokinetic properties compared to unmodified apelin ([2]; 0.1 mg/kg intravenous, plasma): improved pharmacokinetic properties; bioavailability improvement [2]: 213 fold
– | PTH: Parathyroid hormone, polypeptide containing 84 amino acids secreted by the parathyroid glands | – | – | – | – | – | – | half-life [3]: approximately 4 minutes
– | B1 | – | – | – | – | – | – | half-life in serum [4]: about 1.1 hours
0.16 | B2 | 228 h(ng/ml) | .534 h⁻¹ | 2.8 | 2 | 1.3 | 59 | –
0.13 | B3 | 1640 h(ng/ml) | .131 h⁻¹ | 7.9 | 2 | 5.3 | 115 | half-life (t1/2) [5]: 5.3 h; half-life improvement compared to unmodified FGF21 [5]: 4.1 fold; improvement in AUC values versus unmodified FGF21 [5]: 7.2 fold
0.40 | B4 | 2727 h(ng/ml) | .0604 h⁻¹ | 18.9 | 4 | 11.5 | 118 | half-life (t1/2) [5]: 11.5 h; half-life improvement compared to unmodified FGF21 [5]: 8.8 fold; improvement in AUC values versus unmodified FGF21 [5]: 12.0 fold
